We go through 39 sequences from the supplement of paper PMC7877785.

This data set is described as follows: self-splicing fitness, log relative to wild type (ln ratio); higher = more splicing; Tetrahymena group I intron in knt gene, E. coli kanamycin selection, DiMSum; sequences stand for … in CUCUCU…GGAGGGAAAAGUUAUCAGGCAUGCACCUGGUAGCUAGUCUUUAAACCAAUAGAUUGCAUCGGUUUAAAAGGCAAGACCGUCAAAUUGCGGGAAAGGGGUCAACAGCCGUUCAGUACCAAGUCUCAGGGGAAACUUUGAGAUGGCCUUGCAAAGGGUAUGGUAAUAAGCUGACGGACAUGGUCCUAACCACGCAGCCAAGUCCUAAGUCAACAGAUCUUCUGUUGAUAUGGAUGCAGUUCACAGACUAAAUGUCGGUCGGGGAAGAUGUAUUCUUCUCAUAAGAUAUAGUCGGACCUCUCCUUAAUGGGAGCUAGCGGAUGAAGUGAUGCAACACUGGAGCCGCUGGGAACUAAUUUGUAUGCGAAAGUAUAUUGAUUAGUUUUGGAGUACUCGUGGUCG
In short, it runs like this:
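Six replicate transformations of E. coli BL21(DE3) with a pET-22b(+) library were grown overnight at 37°C or 30°C. The library randomised all eight P1ex-region intron nucleotides, the intron lying in the knt kanamycin-resistance gene, and plates were LB agar with or without 25 μg/mL kanamycin plus 100 μg/mL carbenicillin, 50 μM IPTG and 0.2% rhamnose. Pooled colonies were amplicon-sequenced on an Illumina HiSeq 2500, and fitness is the DiMSum error-weighted combination of wild-type-normalised replicate fold changes, kanamycin versus none.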

± gives the uncertainty stated by the source.

As to UGUUAGCAAUAUUACGUUAG, the “self-splicing fitness (ln)” value is -0.971 ± 0.12 (30 °C) and -1.26 ± 0.12 (37 °C).

Consider AAUGAGCAAUAUUACGCAAA, for which, where the note is “37 °C”, the “self-splicing fitness (ln)” value was -2.46 ± 0.48.

On to AGCCAGCAAUAUUACGUCCA, for which the “self-splicing fitness (ln)” value is -2.69 ± 0.18 (30 °C) and -1.99 ± 0.2 (37 °C).

CCCCAGCAAUAUUACGCGCA: the “self-splicing fitness (ln)” value (30 °C) is -3.61 ± 0.27 and the “self-splicing fitness (ln)” value (37 °C) was -1.36 ± 0.21.

UAUGAGCAAUAUUACGGCGC: the “self-splicing fitness (ln)” value (30 °C) is -3.47 ± 0.48 and the “self-splicing fitness (ln)” value (37 °C) is -1.46 ± 0.29.

Turning to UACUAGCAAUAUUACGAAUU, the “self-splicing fitness (ln)” value (30 °C) was -4.02 ± 0.42 and the “self-splicing fitness (ln)” value (37 °C) is -2.32 ± 0.25.

Take AGCCAGCAAUAUUACGAUUA: the “self-splicing fitness (ln)” value is -2.22 ± 0.27 (30 °C) and -2.48 ± 0.28 (37 °C).

With AUUCAGCAAUAUUACGCGUU, the “self-splicing fitness (ln)” value is, setting by setting: (30 °C) -0.912 ± 0.07; (37 °C) -0.348 ± 0.081.

Regarding UAUCAGCAAUAUUACGGCUA, the “self-splicing fitness (ln)” value was 0.13 ± 0.085 (30 °C) and 0.848 ± 0.12 (37 °C).

For CUCAAGCAAUAUUACGUAGU, the “self-splicing fitness (ln)” value (30 °C) is -3.43 ± 0.17 and the “self-splicing fitness (ln)” value (37 °C) is -1.91 ± 0.14.

GUGAAGCAAUAUUACGGGUG: the “self-splicing fitness (ln)” value is, setting by setting: (30 °C) -1.39 ± 0.075; (37 °C) -0.589 ± 0.11.

Regarding AGAGAGCAAUAUUACGAAGG, the “self-splicing fitness (ln)” value is -3.13 ± 0.39 (30 °C) and -1.42 ± 0.37 (37 °C).

In the case of CCGAAGCAAUAUUACGCUUU, the “self-splicing fitness (ln)” value was -2.45 ± 0.15 (30 °C) and -3.33 ± 0.23 (37 °C).

Consider ACUGAGCAAUAUUACGAGGU, for which the “self-splicing fitness (ln)” value is -2.91 ± 0.14 (30 °C) and -1.99 ± 0.23 (37 °C).

Turning to ACUAAGCAAUAUUACGAGCA, the “self-splicing fitness (ln)” value was -1.29 ± 0.086 (30 °C) and -0.197 ± 0.098 (37 °C).

Turning to UCUCAGCAAUAUUACGUGAU, the “self-splicing fitness (ln)” value is -4.03 ± 0.21 (30 °C) and -1.85 ± 0.13 (37 °C).

Consider AAAGAGCAAUAUUACGCCUC, for which the “self-splicing fitness (ln)” value (30 °C) is -0.411 ± 0.27.

For the sequence ACUUAGCAAUAUUACGCAAU, the “self-splicing fitness (ln)” value runs as follows: (30 °C) -3.64 ± 0.26; (37 °C) -2.05 ± 0.21.

For the sequence CUUAAGCAAUAUUACGGGGU, the “self-splicing fitness (ln)” value is, setting by setting: (30 °C) -3.09 ± 0.15; (37 °C) -3.33 ± 0.29.

As to UCUUAGCAAUAUUACGACCU, the “self-splicing fitness (ln)” value is, setting by setting: (30 °C) -1.75 ± 0.4; (37 °C) 0.256 ± 0.43.

Consider CGUCAGCAAUAUUACGUCGC, for which the “self-splicing fitness (ln)” value by setting is: (30 °C) -3.45 ± 0.34; (37 °C) -1.88 ± 0.36.

With GCUGAGCAAUAUUACGCCGA, the “self-splicing fitness (ln)” value (37 °C) was -1.38 ± 0.32.

On to CACCAGCAAUAUUACGAAAU, for which the “self-splicing fitness (ln)” value is, setting by setting: (30 °C) -4.11 ± 0.18; (37 °C) -2.29 ± 0.16.

Take CCGUAGCAAUAUUACGCAGU: the “self-splicing fitness (ln)” value reads like this: (30 °C) -2.54 ± 0.18; (37 °C) -2.6 ± 0.27.

Take GUGGAGCAAUAUUACGAAAA: where the note is “30 °C”, the “self-splicing fitness (ln)” value was -2.27 ± 0.43.

With GGAUAGCAAUAUUACGUUGA, the “self-splicing fitness (ln)” value was -3.16 ± 0.24 (30 °C) and -1.25 ± 0.18 (37 °C).

In the case of UUACAGCAAUAUUACGCACU, the “self-splicing fitness (ln)” value is, setting by setting: (30 °C) -0.534 ± 0.12; (37 °C) -0.572 ± 0.14.

For AGCAAGCAAUAUUACGGGGU, the “self-splicing fitness (ln)” value is, setting by setting: (30 °C) -2.45 ± 0.15; (37 °C) -2 ± 0.12.

As for UUACAGCAAUAUUACGGCUU, the “self-splicing fitness (ln)” value was -1.13 ± 0.082 (30 °C) and -1.35 ± 0.1 (37 °C).

As for CGUUAGCAAUAUUACGCCCU, the “self-splicing fitness (ln)” value is, setting by setting: (30 °C) -1.26 ± 0.2; (37 °C) -0.204 ± 0.19.

With GAAGAGCAAUAUUACGAUUU, the “self-splicing fitness (ln)” value (30 °C) was -1.31 ± 0.079 and the “self-splicing fitness (ln)” value (37 °C) is -1.04 ± 0.14.

Consider CAAUAGCAAUAUUACGUGAA, for which the “self-splicing fitness (ln)” value (30 °C) is -4.02 ± 0.37 and the “self-splicing fitness (ln)” value (37 °C) was -1.7 ± 0.22.

On to UAAAAGCAAUAUUACGUAGG, for which the “self-splicing fitness (ln)” value runs as follows: (30 °C) -2 ± 0.083; (37 °C) -1.22 ± 0.11.

For UUAAAGCAAUAUUACGUGUC, the “self-splicing fitness (ln)” value runs as follows: (30 °C) -1.09 ± 0.14; (37 °C) -1.42 ± 0.16.

As for CAACAGCAAUAUUACGGACA, the “self-splicing fitness (ln)” value reads like this: (30 °C) -1.81 ± 0.1; (37 °C) -0.798 ± 0.097.

For GGAUAGCAAUAUUACGUCAC, the “self-splicing fitness (ln)” value is, setting by setting: (30 °C) -2.88 ± 0.27; (37 °C) -2.05 ± 0.26.

On to GCUCAGCAAUAUUACGCGGC, for which the “self-splicing fitness (ln)” value (30 °C) is -3.83 ± 0.47 and the “self-splicing fitness (ln)” value (37 °C) was -1.46 ± 0.26.

For CUAUAGCAAUAUUACGGACA, the “self-splicing fitness (ln)” value by setting is: (30 °C) -2.77 ± 0.22; (37 °C) -1.1 ± 0.29.

As for UGAAAGCAAUAUUACGGGGU, the “self-splicing fitness (ln)” value reads like this: (30 °C) -3.55 ± 0.2; (37 °C) -2.48 ± 0.18.
